Test results from the RNAGym collection of RNA variant scans (doi:10.7554/elife.80360).

B1: Hairpin Ribozyme (parent)
chain: GUCCUCUUUCACGUGCGCGUGAAAGAGAGAAGUGAACCAGAGAAACACACGUUGUGGUAUAUUACCUGGUA

Variants of: B1
Assay: self-cleavage, relative activity (ratio to wild type); higher = more cleavage; co-transcriptional

Row | Variant | self-cleavage
1 | U55C A71G | 0.388
2 | G54A C66G | 0.113
3 | U55C A61U | 0.281
4 | G54A U63G | 0.172
5 | G57C C65U | 0.192
6 | G56C A61C | 0.109
7 | U55G C65U | 0.0906
8 | U55G C65G | 0.256
9 | G54A A59C | 0.307
10 | U55C U67A | 0.177
11 | U55C U67G | 0.113
12 | U55A U62A | 0.104
13 | U55A U62C | 0.229
14 | U55G G56U | 0.211
15 | U55G G56C | 0.107
16 | G54A U67G | 0.157
17 | G56A A61G | 0.2
18 | G56A A61C | 0.112
19 | G57C A59G | 0.244
20 | G57C A59U | 0.159
21 | U55G A71U | 0.209
22 | G54U C65U | 0.171
23 | U55A C65U | 0.21
24 | G56U U67C | 0.111

Row | Variant | self-cleavage
25 | G56U U67A | 0.23
26 | G56U U67G | 0.12
27 | G54C U70C | 0.146
28 | G57C A64U | 0.095
29 | U55G A61G | 0.0963
30 | U55G G57A | 0.0886
31 | G57C C66G | 0.113
32 | G54A U55C | 0.502
33 | G54U U63C | 0.214
34 | G56C A59G | 0.205
35 | G56C A59C | 0.154
36 | G54U A59U | 0.178
37 | G56A G68C | 0.0908
38 | G56A G68U | 0.146
39 | G54C G69U | 0.113
40 | G56A C65U | 0.104
41 | G54U G68U | 0.302
42 | U55G U60A | 0.0917
43 | U55G U60G | 0.185
44 | G54A A71C | 0.977
45 | G54A U62C | 0.195
46 | G57A G69A | 0.122
47 | G54C U67A | 0.167
48 | U55A U67G | 0.27

Row | Variant | self-cleavage
49 | U55A U67A | 0.219
50 | G56C A64C | 0.104
51 | G56C A64G | 0.148
52 | U55A U60G | 0.33
53 | U55A U60A | 0.245
54 | G56U U63C | 0.169
55 | U55A G69C | 0.217
56 | U55G G68U | 0.139
57 | G56C U62G | 0.129
58 | U55G U62G | 0
59 | G54A G69A | 0.137
60 | U55G U58C | 0.651
61 | G54A A64C | 0.152
62 | G54A A64G | 0.403
63 | G54A A64U | 0.114
64 | G54U U60G | 0.29
65 | G54U U60A | 0.252
66 | U55A U63G | 0.142
67 | G56U C66G | 0.22
68 | G56U C66U | 0.0775
69 | G56A C66A | 0.0948
70 | G56C G69U | 0.313
71 | G56C G69C | 0.12
72 | G56U A71G | 0.127

Row | Variant | self-cleavage
73 | U55A A61C | 0.104
74 | G56A A71U | 0.142
75 | G56A U63G | 0.0781
76 | G56A U63C | 0.286
77 | U55C G57A | 0.11
78 | G56A G69A | 0.148
79 | G54U U67C | 0.106
80 | G54C U60C | 0.47
81 | G54C U60A | 0.272
82 | U55C U62C | 0.315
83 | U55C U62A | 0.106
84 | U55A G57U | 0.146
85 | U55A G68C | 0.098
86 | U55C G69U | 0.159
87 | U55C G69C | 0.183
88 | U55C G69A | 0.166
89 | G54C C66A | 0.169
90 | U55A A71U | 0.18
91 | G54C U55G | 0.25
92 | G56C A71G | 0.28
93 | U55C U58A | 0.257
94 | G54U U58G | 0.401
95 | G54U U58C | 0.713
96 | G57A A59C | 0.142

Row | Variant | self-cleavage
97 | G57A A59G | 0.171
98 | G57C A61C | 0.236
99 | G56A A59C | 0.169
100 | G56U A59U | 0.171
101 | G56U A59C | 0.135
102 | G57A | 0.183
103 | G57C | 0.166
104 | G54A G56A | 0.0848
105 | G54A G56U | 0.104
106 | G57C G68U | 0.172
107 | U55C C65G | 0.194
108 | G56U G68A | 0.183
109 | G56U G68C | 0.157
110 | U53G U70G | 0.848
111 | G57A U70C | 0.274
112 | G56U U70A | 0.145
113 | G56U U70C | 0.271
114 | U55C G68A | 0.166
115 | G54U G56U | 0.203
116 | U55G G69U | 0.25
117 | U55G C66G | 0.251
118 | U55C A59G | 0.0716
119 | U55C A59C | 0.0877
120 | G57A A61C | 0.155

Row | Variant | self-cleavage
121 | G57A A61U | 0.143
122 | G57A A61G | 0.169
123 | G56C U70G | 0.0624
124 | U55A A64G | 0.195
125 | G56C G68C | 0.236
126 | U55G A59U | 0.156
127 | G57C U63A | 0.165
128 | U55A U70A | 0.181
129 | G54A U58C | 0.635
130 | G54A U58G | 0.178
131 | U55C U63A | 0.18
132 | U55C U63G | 0.119
133 | U55G U67G | 0.233
134 | G56U A64G | 0.0832
135 | G56U U58C | 0.0906
136 | G56C C65U | 0.16
137 | G56C C65G | 0.0604
138 | G54C G56C | 0.286
139 | G57A U62G | 0.273
140 | G56U G69A | 0.114
141 | G56U G69C | 0.124
142 | G56U G69U | 0.207
143 | U55C | 0.25
144 | U55G | 0.297

Row | Variant | self-cleavage
145 | U55A | 0.258
146 | U55C G56A | 0.0854
147 | U55C G56C | 0.114
148 | G57A U63A | 0.131
149 | U55G U63C | 0.0583
150 | G57C G69A | 0.135
151 | G57C G69C | 0.142
152 | G54A G68C | 0.208
153 | U55G A64G | 0.266
154 | G57C U60G | 0.178
155 | G57C U60A | 0.14
156 | G54C A59G | 0.0783
157 | G54C A59U | 0.18
158 | G54A A61G | 0.397
159 | G54A A61C | 0.192
160 | G57A A64G | 0.131
161 | G57A A64C | 0.118
162 | G56A G57U | 0.176
163 | G54C A64G | 0.18
164 | U55C U60C | 0.4
165 | G57A U60A | 0.152
166 | G54A C65U | 0.102
167 | G56A U70G | 0.254
